Test results published in patent US4287300A, “Charge effects in enzyme immunoassays” (priority 1979, dated 1981).

System: β-galactosidase
Assay: β-galactosidase activity assay with ONPG substrate
Format: biochemical
Details: after dithioerythritol treatment and Biogel A5M chromatography
Protocol: C. To 1.8 ml of a 35.3 mg/ml solution of the antiHIgG was added 60 μl (10 mg/ml DMF) of m-maleimidobenzoic acid NHS ester and the mixture allowed to stand at room temperature for 30 min, followed by the addition of 0.18 ml of 1 M sodium acetate, pH 5. The reaction mixture was then dialyzed 2×500 ml (degassed) 20 mM sodium acetate, pH 5, 0.15 M NaCl for 1 hr at room temperature. To a solution of 5 ml of β-galactosidase (1.47 mg/ml) was added 0.2 ml of 0.5 M phosphate, pH 7, followed by 2 ml of the above reaction product at a concentration of 31.1 mg/ml and the mixture incubated at room temperature for 4 hrs. The reaction was terminated by the addition of 0.2 ml of 10 mM cysteine-HCl and incubating for 0.5 hr to yield a final volume of 7.4 ml. […] Fractions 24 to 33 were collected to provide a volume of 50 ml with an optical density at 280 nm of 0.540 and a molar ratio of antibody to enzyme of about 5:1. […] Assaying for the enzyme employed a 10 μl fraction dissolved in 0.5 ml PBS, N3, Mg, RSA combined with 0.1 ml 20 mM ONPG in 0.4 ml buffer and measuring the rate at 37° at 420 nm for the interval between 10 to 20 secs after addition of the substrate.
D. The above procedure was repeated as follows. […] The assays were performed at 37° C., reading at 420 nm employing an assay solution of 10 μl of the conjugate, 0.9 ml PBS, N3, Mg, RSA and 0.1 ml of substrate (20 mM ONPG).

β-galactosidase: β-galactosidase (Boehringer 150797), treated with dithioerythritol and chromatographed on Biogel A5M
enzyme activity: 477 u/mg of protein
